One data set concerns the target PrgB188-1233 (Enterococcus faecalis, UniProt Q04112). In words: isothermal titration calorimetry. In kind it is binding. On the technique in general: ITC needs no label: the signal is the heat of the interaction.
A further data set concerns the target PrgB246-558 (Enterococcus faecalis, UniProt Q04112). In words: isothermal titration calorimetry. The data set is classed as binding.
The next data set deals with PrgB188-1233 monomer (Enterococcus faecalis (plasmid pCF10), UniProt Q04112 188-1233). The experiment in a line: ITC.
The next data set concerns the target PrgB188-1233 dimer (Enterococcus faecalis (plasmid pCF10), UniProt Q04112 188-1233). The experiment in a line: ITC.
Data set [1] addresses PrgB246-558 adhesin domain (Enterococcus faecalis (plasmid pCF10), UniProt Q04112 246-558). The experiment in a line: ITC.

Broadly, the Kd is the free concentration of one partner at which half of the binding sites on the other are occupied at equilibrium, for simple one-to-one binding.

In the case of `O=P(O)(O)OCC(O)CO` (centres unmarked) [glycerol phosphate], the dissociation constant (Kd) on PrgB188-1233 was found to be 309 ± 55.3 µM; on PrgB246-558 it was 276 ± 71.2 µM.

B1: 19-bp dsDNA (dsDNA)
DNA 1: GGGGGCGGGGCGGGCGGCG
DNA 2: CGCCGCCCGCCCCGCCCCC
Take B1: the Kd came to 364 ± 73.8 µM with PrgB188-1233 monomer, 164 ± 42.4 µM with PrgB188-1233 dimer and 46.2 ± 14.5 µM in data set [1].
